Reference: patent US20180155451A1 (published 2018)

T1: FcγRIIb (human, UniProt P31994 43-217)
T1 construct: extracellular domain; for crystallography expressed with Kifunesine and trimmed with Endo F1; also called FcgRIIb; FcgR2b; not shown: His tag attached to the C terminus
T1 sequence (looked up): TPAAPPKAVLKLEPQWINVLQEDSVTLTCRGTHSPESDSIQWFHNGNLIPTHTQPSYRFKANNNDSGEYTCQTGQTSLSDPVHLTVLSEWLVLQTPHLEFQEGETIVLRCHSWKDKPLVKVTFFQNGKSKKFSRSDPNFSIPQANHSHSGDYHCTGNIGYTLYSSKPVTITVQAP

T2: FcgRIIaH (human, UniProt P12318 34-217)
T2 construct: extracellular domain; H131 allotype; also called FcγRIIa H; FcgRIIa type H; not shown: C-terminal His tag
T2 sequence (looked up): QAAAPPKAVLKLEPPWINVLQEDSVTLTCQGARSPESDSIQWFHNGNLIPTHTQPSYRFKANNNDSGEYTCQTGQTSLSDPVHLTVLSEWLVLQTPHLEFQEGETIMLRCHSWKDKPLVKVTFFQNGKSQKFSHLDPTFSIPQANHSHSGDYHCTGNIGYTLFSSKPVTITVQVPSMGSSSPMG

T3: FcgRIIb (human, UniProt P31994 43-217)
T3 construct: extracellular domain; also called FcγRIIb; CD32B; not shown: C-terminal His tag
T3 sequence (looked up): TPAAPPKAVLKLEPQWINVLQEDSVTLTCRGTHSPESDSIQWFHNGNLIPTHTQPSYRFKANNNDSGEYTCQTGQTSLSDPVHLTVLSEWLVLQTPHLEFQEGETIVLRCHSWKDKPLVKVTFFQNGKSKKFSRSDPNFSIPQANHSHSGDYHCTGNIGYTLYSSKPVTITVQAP

T4: FcgRIIaR (human, UniProt P12318 34-217)
T4 construct: extracellular domain; R131 allotype; also called FcγRIIa R; FcgRIIa type R; not shown: C-terminal His tag
T4 sequence (looked up): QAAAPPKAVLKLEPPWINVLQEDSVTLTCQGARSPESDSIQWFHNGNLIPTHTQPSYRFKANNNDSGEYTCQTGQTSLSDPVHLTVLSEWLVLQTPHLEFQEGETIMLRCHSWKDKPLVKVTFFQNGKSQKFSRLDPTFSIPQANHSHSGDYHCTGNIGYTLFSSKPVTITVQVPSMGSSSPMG


Assays:
FcγRIIb = molecular target: T1, FcγRIIb; test: SPR (Biacore), KD
FcgRIIIaF [1] = molecular target: T5, FcgRIIIaF (human, UniProt P08637 17-208); test: SPR (Biacore), antibody captured on chip, FcgR as analyte
T5 construct: extracellular domain; F158 allotype; also called FcγRIIIa F; not shown: C-terminal His tag
T5 sequence (P08637 17-208): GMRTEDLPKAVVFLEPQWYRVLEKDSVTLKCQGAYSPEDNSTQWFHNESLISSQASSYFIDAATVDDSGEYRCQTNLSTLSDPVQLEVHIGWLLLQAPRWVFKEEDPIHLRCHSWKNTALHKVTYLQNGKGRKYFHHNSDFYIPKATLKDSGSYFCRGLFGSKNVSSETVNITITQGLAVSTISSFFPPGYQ
Experimental: (§1) The variants described above were assessed for their binding to FcγR according to the method described in Reference Example 8.
(§2) Analysis of interaction between obj ective antibody and the FcγR was carried out using Biacore T100 (GE Healthcare), Biacore T200, Biacore A100, and Biacore 4000. HBS-EP+ (GE Healthcare) was used as the running buffer, and the measurement temperature was set to 25° C. Chips produced by immobilizing the antigen peptide by the amine coupling method to a Series S sensor Chip CM5 (GE Healthcare), chips produced by allowing preliminarily biotinylated antigen peptides to interact with and immobilize onto a Series S Sensor Chip SA (certified) (GE Healthcare), chips produced by immobilizing Protein L (ACTIGEN, BioVision) to Series S Sencor Chip CM5 (GE Healthcare), or chips produced by immobilizing Protein A/G (Thermo Scientific) to Series S Sencor Chip CM5 (GE Healthcare) were used. Antibodies of interest were captured onto these chips, and allowed to interact to each FcγR diluted with running buffer. To regenerate and repeatedly use the chip, the antibodies captured onto the chip were washed off by reacting 10 mM glycine-HCl, pH 1.5.

FcgRIIaH [2] = molecular target: T2, FcgRIIaH; test: as above
Experimental: as §1, §2

FcgRIIIaV [3] = molecular target: T6, FcgRIIIaV (human, UniProt P08637 17-208); test: as above
T6 construct: extracellular domain; V158 allotype; also called FcγRIIIa V; not shown: C-terminal His tag
T6 sequence (P08637 17-208 F176V limits assumed): as the sequence (P08637 17-208) above, with F160V counted along it
Experimental: as §1, §2

FcgRIIb [4] = molecular target: T3, FcgRIIb; test: as above
Experimental: as §1, §2

FcgRIIaR [5] = molecular target: T4, FcgRIIaR; test: as above
Experimental: as §1, §2

FcgRIIIaF [6] = molecular target: T5, FcgRIIIaF; test: SPR (Biacore); KD of H240-Kn120/H240-Hl068/L73-k0 divided by KD of the sample
Experimental: as §1, §2

FcgRIIaH [7] = molecular target: T2, FcgRIIaH; test: as above
Experimental: as §1, §2

FcgRIIIaV [8] = molecular target: T6, FcgRIIIaV; test: as above
Experimental: as §1, §2

FcgRIIb [9] = molecular target: T3, FcgRIIb; test: as above
Experimental: as §1, §2

FcgRIIaR [10] = molecular target: T4, FcgRIIaR; test: as above
Experimental: as §1, §2

FcgRIa = molecular target: T7, FcgRIa (human, UniProt P12314 16-292); test: SPR (Biacore 4000), antibody captured on chip, FcgR as analyte; kd below the limit 5e-5 /s
T7 construct: extracellular domain; also called FcγRIa; FcγRI; not shown: C-terminal His tag
T7 sequence (P12314 16-292): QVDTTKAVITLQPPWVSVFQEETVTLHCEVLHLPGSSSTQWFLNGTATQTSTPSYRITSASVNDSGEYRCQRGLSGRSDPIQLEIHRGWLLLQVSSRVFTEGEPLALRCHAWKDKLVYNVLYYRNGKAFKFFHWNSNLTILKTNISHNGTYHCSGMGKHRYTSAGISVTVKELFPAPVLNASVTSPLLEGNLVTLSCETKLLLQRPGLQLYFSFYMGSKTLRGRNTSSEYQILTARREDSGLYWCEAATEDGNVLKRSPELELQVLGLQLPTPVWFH
Experimental: as §1, §2

Row | fold increase of binding activity over native IgG1 (FcγRIIb) [fold] | Kd (FcgRIIIaF [1]) [nM] | Kd (FcgRIIaH [2]) [nM] | Kd (FcgRIIIaV [3]) [nM] | Kd (FcgRIIb [4]) [nM] | Kd (FcgRIIaR [5]) [nM] | Relative KD (FcgRIIIaF [6]) | Relative KD (FcgRIIaH [7]) | Relative KD (FcgRIIIaV [8]) | Relative KD (FcgRIIb [9]) | Relative KD (FcgRIIaR [10]) | Kd (FcgRIa) [nM] | Binder
1 | ~50 | – | – | – | – | – | – | – | – | – | – | – | H240-Kn120/H240-Hl068/L73-k0 (antibody, human IgG1, kappa, S239M added to H240-Kn067) heavy 1: QDQLVQSGAEVKKPGASVKVSCKASGFNIKDTYIQWVRQAPGQGLEWMGRIDPLRKQTKYREKFEGRVTITADTSTNTAYMELSSLRSEDTAVYYCVRSGREFDYWGQGTLVTVSSASTKGPSVFPLAPSSKSTSGGTAALGCLVKDYFPEPVTVSWNSGALTSGVHTFPAVLQSSGLYSLSSVVTVPSSSLGTQTYICNVNHKPSNTKVDKKVEPKSCDKTHTCPPCPAPEYYWGPMVFLFPPKPKDTLMISRTPEVTCVVVDVSDEDPEVKFNWYVDGVEVHNAKTKPREEQYNATYRVVSVLTVLHQDWLNGKEYKCKVSNKDLPAPIEKTISKAKGQPREPQVCTLPPSRDELTKNQVSLWCLVKGFYPSDIAVEWESNGQPENNYKTTPPVLDSDGSFFLYSKLTVDKSRWQQGNVFSCSVMHEALHNHYTQKSLSLSP heavy 2: QDQLVQSGAEVKKPGASVKVSCKASGFNIKDTYIQWVRQAPGQGLEWMGRIDPLRKQTKYREKFEGRVTITADTSTNTAYMELSSLRSEDTAVYYCVRSGREFDYWGQGTLVTVSSASTKGPSVFPLAPSSKSTSGGTAALGCLVKDYFPEPVTVSWNSGALTSGVHTFPAVLQSSGLYSLSSVVTVPSSSLGTQTYICNVNHKPSNTKVDKKVEPKSCDKTHTCPPCPAPELLGGPSVFLFPPKPKDTLMISRTPEVTCVVVDVSHEEPEVKFNWYVDGVEVHNAKTKPREEQYNSTYRVVSVLTVLHQDWLNGKEYKCKVSNDALPKPIEETISKAKGQPREPQVYTLPPSRCELTKNQVSLSCAVKGFYPSDIAVEWESNGQPENNYKTTPPVLDSDGSFFLVSKLTVDKSRWQQGNVFSCSVMHEALHNHYTQKSLSLSP light: DIQMTQSPSSLSASVGDRVTITCRASQDIHKYIAWYQQKPGQAPRLLIQYTSTLQPGVPSRFSGSGSGTDYTFTISSLQPEDIATYYCLQYEQLRTFGGGTKVEIKRTVAAPSVFIFPPSDEQLKSGTASVVCLLNNFYPREAKVQWKVDNALQSGNSQESVTEQDSKDSTYSLSSTLTLSKADYEKHKVYACEVTHQGLSSPVTKSFNRGEC
2 | – | 12 | 42 | 2.2 | 290 | 19 | 0.2 | 1 | 0.2 | 0.5 | 1.1 | < 0.019 | H240-Kn192/H240-Hl204/L73-k0 (antibody, human IgG1, kappa, Heterodimerized anti-epiregulin antibody) heavy 1: QDQLVQSGAEVKKPGASVKVSCKASGFNIKDTYIQWVRQAPGQGLEWMGRIDPLRKQTKYREKFEGRVTITADTSTNTAYMELSSLRSEDTAVYYCVRSGREFDYWGQGTLVTVSSASTKGPSVFPLAPSSKSTSGGTAALGCLVKDYFPEPVTVSWNSGALTSGVHTFPAVLQSSGLYSLSSVVTVPSSSLGTQTYICNVNHKPSNTKVDKKVEPKSCDKTHTCPPCPAPEYNWGPMVFLFPPKPKDTLMISRTPEVTCVVVDVSDEDPEVKFNWYVDGVEVHNAKTKPREKQYNATYRVVSVLTVLHQDWLNGKEYKCKVSNKDLPAPIEKTISKAKGQPREPQVCTLPPSRDELTKNQVSLWCLVKGFYPSDIAVEWESNGQPENNYKTTPPVLDSDGSFFLYSKLTVDKSRWQQGNVFSCSVMHEALHNHYTQKSLSLSP heavy 2: QDQLVQSGAEVKKPGASVKVSCKASGFNIKDTYIQWVRQAPGQGLEWMGRIDPLRKQTKYREKFEGRVTITADTSTNTAYMELSSLRSEDTAVYYCVRSGREFDYWGQGTLVTVSSASTKGPSVFPLAPSSKSTSGGTAALGCLVKDYFPEPVTVSWNSGALTSGVHTFPAVLQSSGLYSLSSVVTVPSSSLGTQTYICNVNHKPSNTKVDKKVEPKSCDKTHTCPPCPAPELLTGPSVFLFPPKPKDTLMISRTPEVTCVVVDVSHEEPEVKFNWYVDGVEVHNAKTKPREEQYNSTYRVVSVLTVLHQDWLNGKEYKCKVSNDALPKPEEETISKAKGQPREPQVYTLPPSRCELTKNQVSLSCAVKGFYPSDIAVEWESNGQPENNYKTTPPVLDSDGSFFLVSKLTVDKSRWQQGNVFSCSVMHEALHNHYTQKSLSLSP light: DIQMTQSPSSLSASVGDRVTITCRASQDIHKYIAWYQQKPGQAPRLLIQYTSTLQPGVPSRFSGSGSGTDYTFTISSLQPEDIATYYCLQYEQLRTFGGGTKVEIKRTVAAPSVFIFPPSDEQLKSGTASVVCLLNNFYPREAKVQWKVDNALQSGNSQESVTEQDSKDSTYSLSSTLTLSKADYEKHKVYACEVTHQGLSSPVTKSFNRGEC
3 | – | 11 | 35 | 1.8 | 290 | 16 | 0.2 | 1.2 | 0.2 | 0.5 | 1.3 | < 0.024 | H240-Kn193/H240-Hl204/L73-k0 (antibody, human IgG1, kappa, Heterodimerized anti-epiregulin antibody) heavy 1: QDQLVQSGAEVKKPGASVKVSCKASGFNIKDTYIQWVRQAPGQGLEWMGRIDPLRKQTKYREKFEGRVTITADTSTNTAYMELSSLRSEDTAVYYCVRSGREFDYWGQGTLVTVSSASTKGPSVFPLAPSSKSTSGGTAALGCLVKDYFPEPVTVSWNSGALTSGVHTFPAVLQSSGLYSLSSVVTVPSSSLGTQTYICNVNHKPSNTKVDKKVEPKSCDKTHTCPPCPAPEYNWGPMVFLFPPKPKDTLMISRTPEVTCVVVDVSDEDPEVKFNWYVDGVEVHNAKTKPRERQYNATYRVVSVLTVLHQDWLNGKEYKCKVSNKDLPAPIEKTISKAKGQPREPQVCTLPPSRDELTKNQVSLWCLVKGFYPSDIAVEWESNGQPENNYKTTPPVLDSDGSFFLYSKLTVDKSRWQQGNVFSCSVMHEALHNHYTQKSLSLSP heavy 2: QDQLVQSGAEVKKPGASVKVSCKASGFNIKDTYIQWVRQAPGQGLEWMGRIDPLRKQTKYREKFEGRVTITADTSTNTAYMELSSLRSEDTAVYYCVRSGREFDYWGQGTLVTVSSASTKGPSVFPLAPSSKSTSGGTAALGCLVKDYFPEPVTVSWNSGALTSGVHTFPAVLQSSGLYSLSSVVTVPSSSLGTQTYICNVNHKPSNTKVDKKVEPKSCDKTHTCPPCPAPELLTGPSVFLFPPKPKDTLMISRTPEVTCVVVDVSHEEPEVKFNWYVDGVEVHNAKTKPREEQYNSTYRVVSVLTVLHQDWLNGKEYKCKVSNDALPKPEEETISKAKGQPREPQVYTLPPSRCELTKNQVSLSCAVKGFYPSDIAVEWESNGQPENNYKTTPPVLDSDGSFFLVSKLTVDKSRWQQGNVFSCSVMHEALHNHYTQKSLSLSP light: DIQMTQSPSSLSASVGDRVTITCRASQDIHKYIAWYQQKPGQAPRLLIQYTSTLQPGVPSRFSGSGSGTDYTFTISSLQPEDIATYYCLQYEQLRTFGGGTKVEIKRTVAAPSVFIFPPSDEQLKSGTASVVCLLNNFYPREAKVQWKVDNALQSGNSQESVTEQDSKDSTYSLSSTLTLSKADYEKHKVYACEVTHQGLSSPVTKSFNRGEC
